Assay results taken from US20150087584A1.

Target: Helicoverpa armigera gut proteases (HGP) (Helicoverpa armigera)
Assay: cell-based or functional assay

Sequence of inhibitory repeat domain IRD-7 of Capsicum annuum Pin-II proteinase inhibitors (CanPIs) (O49146 other isoform, or with tags, fused parts or gaps): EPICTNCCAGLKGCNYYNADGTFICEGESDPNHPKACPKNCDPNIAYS

HGPI activity of the IRD alone at its IC50 concentration: 49%
inhibition of HGP activity (BApNA and Azocasein substrates): 40 to 45%
Substance: inhibitory repeat domain IRD-7 of Capsicum annuum Pin-II proteinase inhibitors (CanPIs) (from UniProt O49146 152-198)
